Here are results for two molecules from US12624096B2, “Anti-tau antibodies and methods of use thereof” (GTInvent Limited, priority 2020, dated 2026).

Test [1] relates to alanine substituted 13mer tau peptides. Kind of test: Alanine scanning mutagenesis (ASM) peptide ELISA. It counts as binding, human. To be noted: numbering according to SEQ ID NO: 1; description text 'may be'. The method, then: To further elucidate epitopes of the scAb panel, and identify the critical amino acids needed for binding, alanine scanning mutagenesis of the parent 13 aa peptides for scAbs CE2, S1D12, CA4 and S1G2 was performed. […] Briefly, 5 μg/ml streptavidin (Thermo Fisher) was adsorbed to Nunc 96-well MaxiSorp plates and following incubation at 37° C., for 1 h, the plates were washed as normal and blocked with 2% MPBS. N-terminally biotinylated peptides (Prolmmune Ltd) were added to the plates and incubated for 1 h at 37° C. Subsequently, test scAbs at starting concentrations of 100-500 nM was added and double diluted across the plate for each peptide and incubated for 1 h at 37° C. Rest of the ELISA was conducted as described above and the plates were read at absorbance 450 nm. Immunoreactivity of the scAb of interest was quantified as the % of scAb was bound for each peptide at a chosen concentration (FIG. 15-20).
On the technique in general: In an ELISA, binding on a coated surface is turned into a signal by an enzyme label.

Another test concerns the target dGA (Homo sapiens, UniProt P10636). Kind of test: Biacore X100 SPR, scAb captured via anti-HuCk, dGA as analyte. In kind it is binding. To be noted: dissociation rate. The protocol: Surface plasmon resonance (SPR) is widely regarded as the gold standard for real time measurement of protein-protein interactions such as antibody binding. All SPR experiments were carried out using a Biacore X100 machine and HBS EP+ running buffer (GE Healthcare). A ‘capture’ method was followed for affinity measurements, where an anti-human constant kappa chain (HuCk) antibody was conjugated to the surface of a CM5 sensor chip using an amine coupling kit and scAb molecules were immobilised via their HuCk domain. Amine coupling is a very common approach for immobilising the ligand to the chip surface. The chip surface has a dextran matrix derivatised with carboxyl groups, which after activation with N-hydroxysuccinimide (NHS) and 1-ethyl-3-(3-dimethylaminopropyl) carbodiimide (EDC), form reactive succinimide esters which allows the covalent capturing of the ligand via any available primary amine groups (e.g. Lysine) on the ligand (in this case anti-HuCk antibody). The capture antibody was diluted 1/100 in 10 mM Sodium acetate buffer pH 5.0 and passed over the activated chip surface for a period of at least 420 s. Final ligand immobilisation levels over 12,000 RU were deemed to be satisfactory.
Following immobilisation, the level of each scAb to be captured was identified using the standard SPR equation with a theoretical RMax of 100 RU. Analyte MW refers to the molecular weight of hT40 or dGA/dGAE molecules, while ligand MW refers to the molecular weight of the scAbs tested. RL is the desired capture level and S refers to the stoichiometric ratio:
The scAb to be tested was added only to flow cell 2 so that flow cell 1 could act as a control to subtract any interaction with the analyte and the chip surface. Both single and multi-cycle runs were utilised using wizards developed in the Biacore X100 control software which are both accepted methods of kinetic analysis (Karlsson, R., et al. Analyzing a kinetic titration series using affinity biosensors (2006) Analytical Biochemistry 349:136-47). The multi-cycle protocol was as follows-Three start-up cycles composed of an initial capture, to the desired level, of the scAb to be tested was performed followed by a 30 s injection of glycine buffer pH 2.0 after each cycle to regenerate the chip surface. The regeneration step removed any captured scAb whilst leaving the capture antibody intact and able to repeat the capture for the next cycle. Following three start-up cycles increasing concentrations (0.15625 nM-100 nM) of the target to be tested were added to the chip surface after the desired scAb capture. The target was added for a 120 s association period and 420 s dissociation period followed by another regeneration, 30 s injection of glycine buffer pH 2.0 in between each cycle.
The single cycle kinetics protocol was similar and utilised the same level of scAb capture. Three start-up cycles were used followed by 5 increasing concentrations of the analyte (6.25 nM-100 nM) for an association period of 120 s followed by a dissociation period of 420 s for each concentration. In single cycle kinetics the regeneration step was performed only after the final analyte concentration was added. Binding responses were analysed in Biacore X100 evaluation software and data fitted to a 1:1 binding model to obtain kinetic and affinity characterisation.
In general terms: SPR reads the build-up and loss of mass on a sensor chip optically.

In another test the target is htau40 (Homo sapiens, UniProt P10636). Kind of test: Biacore X100 SPR of anti-tau mAbs on immobilised htau40. It counts as binding. To be noted: mAb, Table 27, immobilised hT40. The essentials: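 htau40 amine-coupled to a CM5 chip (~250 RU); mAb injected at 0.78–25 nM in HBS-EP+ at 30 μL/min, 120 s association, 600 s dissociation, glycine pH 1.5 regeneration. Kinetics and affinity from 1:1 binding fit with reference-cell subtraction.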
Sequence of htau40 (P10636 1-441 isoform P10636-8): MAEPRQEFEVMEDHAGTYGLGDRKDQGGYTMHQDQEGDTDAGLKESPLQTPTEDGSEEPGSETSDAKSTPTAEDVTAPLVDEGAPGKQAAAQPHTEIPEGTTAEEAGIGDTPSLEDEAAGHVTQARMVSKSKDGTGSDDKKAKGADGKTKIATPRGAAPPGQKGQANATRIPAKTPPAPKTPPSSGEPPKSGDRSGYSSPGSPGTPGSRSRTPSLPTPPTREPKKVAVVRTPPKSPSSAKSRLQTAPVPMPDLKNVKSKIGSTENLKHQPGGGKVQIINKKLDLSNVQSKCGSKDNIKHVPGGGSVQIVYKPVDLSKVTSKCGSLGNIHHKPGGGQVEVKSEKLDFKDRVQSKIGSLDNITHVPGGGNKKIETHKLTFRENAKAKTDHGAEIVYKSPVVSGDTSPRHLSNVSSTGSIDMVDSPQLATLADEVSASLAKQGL

For a further test, the system named is human tau and mouse tau. Nature of the test: Western blot of WT, L66+/+ and L1+/+ mouse brain homogenates. To be noted: 20 μg protein, 5-month-old mice. In kind it is binding. The method, then:
Protein equivalent to 20 μg from each brain extract was separated using 4-20% bis-tris gels and run in 1×MES buffer.
A band is detected in each sample (WT, L66^+/+ and L1^+/+) with an apparent molecular weight of approximately 55 kDa. This band most likely corresponds to endogenous mouse tau which is of a similar size. In the L66^+/+ samples, a second band running at approximately 68 kDa is also detected. The presence of numerous other bands indicates proteolytic truncation of tau within brain homogenates.
In general terms: A western blot detects proteins with antibodies after separation by electrophoresis.

Entries after “also recorded” stand apart in the source; their conditions may differ.

Sequence of dGA (P10636 614-707): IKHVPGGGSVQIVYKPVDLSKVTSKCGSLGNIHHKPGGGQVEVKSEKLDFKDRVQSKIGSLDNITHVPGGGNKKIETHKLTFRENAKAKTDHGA

B1: S1G2: anti-tau clone, SEQ ID NO: 81 (protein)
scFv: QVQLQESGPSLVKPSQTLSLTCTVSGFSLTSNSVGWVRQAPGKAPEWVAGIDTDGEEGYNPALNSRLSITRDTSKSQVSLSLSSVTSEDTAVYYCGRSYRADGLAYGYVQAIDYWGPGLLVTVSSEGKSSGASGESKVDDQAVVTQPSSVSGSLGQRVSITCSGSFIGISSVGWFQQLPGSGLRTIIVASDGRPSGVPDRFSMSKSGNTATLTISSLQAEDEADYFCGSSDRTPYTGVFGSGTRLTVLG
modifications: S1G2 amino acid sequence
As to B1, the “Critical residues of the epitope” value in test [1] is listed as 370 (K) and/or 374 (H). Moreover, the “Kd” value in the test with dGA was determined as 0.0003499 s⁻¹. In addition, in the test with htau40, the ka is 339800 M⁻¹ s⁻¹ and the kd amounted to 4.748e-05 s⁻¹. Further, in the test with human tau and mouse tau, the “bands detected in western blot of WT, L66+/+ and L1+/+ brain homogenates” value is “numerous bands visible in each mouse sample; also recorded: able to detect the pathologic 10-kDa tau fragment”.

B2: S1D12: anti-tau clone from immunised sheep, SEQ ID NO: 32 (protein)
scFv: QVQLQESGPSLVKPSQTLSLTCTVSGFSLNNNAVGWVRQAPGKVPESLVGCSSDGTCYYNSALKSRLDITRDTSKNQISLSLSSVTTDDAAVYYCTRGHYSIYGYDYLGTIDYWGPGLLVTVSSEGKSSGASGESKVDDQAVLTQPSSVSGSLGQRVSITCSGSSSNVGGGNSVGWYQHLPGSGLKTIIYDTNSRPSGVPDRFSGSRSGNTATLTINSLQAEDEGDYYCVTGDSTTHDDLVGSGTRLTVLG
modifications: S1D12 amino acid sequence
B2: the “Critical residues of the epitope” value in test [1] was 343 (K), 346 (F) and/or 349 (R). Besides, the “Kd” value in the test with dGA was determined as 0.000418 s⁻¹. In the test with htau40, this molecule displayed a ka of 405800 M⁻¹ s⁻¹ and a kd of 4.093e-05 s⁻¹. Moreover, the “bands detected in western blot of WT, L66+/+ and L1+/+ brain homogenates” value in the test with human tau and mouse tau is listed as “numerous bands visible in each mouse sample”.
